Experimental data: patent US20160200782A1 (MOERAE MATRIX, published 2016)

T1: PKD2(h) (human, UniProt Q9BZL6 1-878, limits assumed)
T1 sequence (looked up): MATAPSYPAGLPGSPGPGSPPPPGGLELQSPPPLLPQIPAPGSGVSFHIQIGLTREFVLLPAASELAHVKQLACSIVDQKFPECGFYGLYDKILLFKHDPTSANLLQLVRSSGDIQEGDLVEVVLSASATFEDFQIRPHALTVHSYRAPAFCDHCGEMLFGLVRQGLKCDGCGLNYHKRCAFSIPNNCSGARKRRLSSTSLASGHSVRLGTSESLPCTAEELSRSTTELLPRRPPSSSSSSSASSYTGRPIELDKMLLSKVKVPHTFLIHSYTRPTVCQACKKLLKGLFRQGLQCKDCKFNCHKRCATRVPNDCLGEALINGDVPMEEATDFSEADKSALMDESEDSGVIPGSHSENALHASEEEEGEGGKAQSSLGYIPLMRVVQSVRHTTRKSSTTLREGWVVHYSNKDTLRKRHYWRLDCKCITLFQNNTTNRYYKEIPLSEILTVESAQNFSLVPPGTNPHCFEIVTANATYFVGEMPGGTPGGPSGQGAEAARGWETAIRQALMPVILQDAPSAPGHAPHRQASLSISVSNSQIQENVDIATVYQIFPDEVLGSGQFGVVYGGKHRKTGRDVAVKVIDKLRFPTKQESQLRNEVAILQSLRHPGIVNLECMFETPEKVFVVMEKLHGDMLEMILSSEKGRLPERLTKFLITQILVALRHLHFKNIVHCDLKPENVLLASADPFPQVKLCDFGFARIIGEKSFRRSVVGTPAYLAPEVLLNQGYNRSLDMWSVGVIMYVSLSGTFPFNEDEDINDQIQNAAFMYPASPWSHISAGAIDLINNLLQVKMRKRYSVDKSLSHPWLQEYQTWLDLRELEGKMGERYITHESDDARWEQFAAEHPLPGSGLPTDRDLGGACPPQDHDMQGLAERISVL

T2: MST1(h) (human, UniProt Q13043 1-487, limits assumed)
T2 sequence (looked up): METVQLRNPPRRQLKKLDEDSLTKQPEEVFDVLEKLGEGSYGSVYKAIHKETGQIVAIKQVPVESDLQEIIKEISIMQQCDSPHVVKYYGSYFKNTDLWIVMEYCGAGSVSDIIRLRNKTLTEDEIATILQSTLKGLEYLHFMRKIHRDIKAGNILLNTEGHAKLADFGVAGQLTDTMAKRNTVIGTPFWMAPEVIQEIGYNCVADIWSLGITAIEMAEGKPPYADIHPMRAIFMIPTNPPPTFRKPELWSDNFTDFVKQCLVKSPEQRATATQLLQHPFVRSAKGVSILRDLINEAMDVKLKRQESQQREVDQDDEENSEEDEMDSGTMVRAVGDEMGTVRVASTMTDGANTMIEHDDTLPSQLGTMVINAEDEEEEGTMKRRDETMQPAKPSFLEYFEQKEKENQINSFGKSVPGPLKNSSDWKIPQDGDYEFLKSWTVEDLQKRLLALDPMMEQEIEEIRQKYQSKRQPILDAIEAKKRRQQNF

T3: Fms(Y969C)(h) (human, UniProt P07333 538-972, limits assumed)
T3 sequence (looked up): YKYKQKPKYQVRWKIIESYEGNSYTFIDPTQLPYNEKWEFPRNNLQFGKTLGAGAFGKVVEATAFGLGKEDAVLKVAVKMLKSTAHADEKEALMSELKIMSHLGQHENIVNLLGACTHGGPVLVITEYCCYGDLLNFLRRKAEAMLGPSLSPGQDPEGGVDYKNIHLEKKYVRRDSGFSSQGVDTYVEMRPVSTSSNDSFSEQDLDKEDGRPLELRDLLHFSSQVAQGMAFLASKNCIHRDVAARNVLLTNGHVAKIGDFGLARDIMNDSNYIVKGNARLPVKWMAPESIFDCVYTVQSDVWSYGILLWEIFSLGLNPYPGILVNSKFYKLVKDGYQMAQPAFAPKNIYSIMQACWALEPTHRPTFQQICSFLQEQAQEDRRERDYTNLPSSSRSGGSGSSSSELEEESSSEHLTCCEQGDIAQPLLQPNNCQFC

T4: DYRK2(h) (human, UniProt Q92630 1-601, limits assumed)
T4 sequence (looked up): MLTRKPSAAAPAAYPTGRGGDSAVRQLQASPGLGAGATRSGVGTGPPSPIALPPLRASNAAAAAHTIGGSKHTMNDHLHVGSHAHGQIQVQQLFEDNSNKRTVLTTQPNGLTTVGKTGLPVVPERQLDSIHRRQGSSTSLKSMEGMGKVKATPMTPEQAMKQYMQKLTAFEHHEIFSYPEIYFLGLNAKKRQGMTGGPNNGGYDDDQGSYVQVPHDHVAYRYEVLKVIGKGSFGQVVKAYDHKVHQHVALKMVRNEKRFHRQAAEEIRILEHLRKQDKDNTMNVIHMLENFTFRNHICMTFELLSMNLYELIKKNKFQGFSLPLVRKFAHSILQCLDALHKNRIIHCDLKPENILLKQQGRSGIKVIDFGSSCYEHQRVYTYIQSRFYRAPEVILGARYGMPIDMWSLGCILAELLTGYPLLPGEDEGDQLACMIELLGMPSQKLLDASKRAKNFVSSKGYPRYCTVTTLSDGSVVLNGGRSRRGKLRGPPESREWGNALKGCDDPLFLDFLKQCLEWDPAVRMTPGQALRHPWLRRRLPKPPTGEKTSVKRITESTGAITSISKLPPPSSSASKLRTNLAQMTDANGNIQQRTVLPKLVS


What was measured:
Assay in all cases: cell-based or functional assay
Pim-3(h) = Pim-3(h) (human, UniProt Q86V86 1-326)
PKD2(h) = target: T1, PKD2(h)
MST1(h) = target: T2, MST1(h)
JAK2(h) = JAK2(h) (human, UniProt O60674 808-1132, limits assumed)
STK33(h) = STK33(h) (human, UniProt Q9BYT3 1-514, limits assumed)
Fms(Y969C)(h) = target: T3, Fms(Y969C)(h)
cSRC(h) = cSRC(h) (human, UniProt P12931 1-536, limits assumed)
Ros(h) = Ros(h) (human, UniProt P08922 1883-2347, limits assumed)
FGFR1(h) = FGFR1(h) (human, UniProt P11362 456-765, limits assumed)
DYRK2(h) = target: T4, DYRK2(h)
HIPK1(h) = HIPK1(h) (human, UniProt Q86Z02 158-555, limits assumed)
Further: test concentration or dose not given here.

Ros(h), sequence (P08922 1883-2347 limits assumed): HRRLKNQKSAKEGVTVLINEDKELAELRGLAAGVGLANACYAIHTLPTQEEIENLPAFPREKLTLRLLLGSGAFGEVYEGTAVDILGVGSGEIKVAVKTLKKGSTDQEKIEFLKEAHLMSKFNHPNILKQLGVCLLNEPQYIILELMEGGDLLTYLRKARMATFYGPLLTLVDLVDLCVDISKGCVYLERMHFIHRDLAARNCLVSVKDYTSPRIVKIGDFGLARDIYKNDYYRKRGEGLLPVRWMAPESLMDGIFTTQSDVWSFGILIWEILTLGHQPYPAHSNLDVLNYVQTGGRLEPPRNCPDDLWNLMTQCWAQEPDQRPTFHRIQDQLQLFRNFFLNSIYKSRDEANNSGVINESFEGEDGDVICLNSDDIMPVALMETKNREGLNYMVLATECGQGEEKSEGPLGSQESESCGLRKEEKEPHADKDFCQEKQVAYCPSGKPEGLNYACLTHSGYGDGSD
FGFR1(h), sequence (P11362 456-765 limits assumed): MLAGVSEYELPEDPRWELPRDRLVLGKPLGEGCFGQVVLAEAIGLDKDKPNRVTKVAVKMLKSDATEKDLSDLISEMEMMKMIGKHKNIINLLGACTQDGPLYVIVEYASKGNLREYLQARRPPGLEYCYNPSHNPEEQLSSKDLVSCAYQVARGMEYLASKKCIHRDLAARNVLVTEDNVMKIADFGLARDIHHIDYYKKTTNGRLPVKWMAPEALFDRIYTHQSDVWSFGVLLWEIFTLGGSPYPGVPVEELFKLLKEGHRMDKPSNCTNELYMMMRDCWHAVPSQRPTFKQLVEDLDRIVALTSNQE
HIPK1(h), sequence (Q86Z02 158-555 limits assumed): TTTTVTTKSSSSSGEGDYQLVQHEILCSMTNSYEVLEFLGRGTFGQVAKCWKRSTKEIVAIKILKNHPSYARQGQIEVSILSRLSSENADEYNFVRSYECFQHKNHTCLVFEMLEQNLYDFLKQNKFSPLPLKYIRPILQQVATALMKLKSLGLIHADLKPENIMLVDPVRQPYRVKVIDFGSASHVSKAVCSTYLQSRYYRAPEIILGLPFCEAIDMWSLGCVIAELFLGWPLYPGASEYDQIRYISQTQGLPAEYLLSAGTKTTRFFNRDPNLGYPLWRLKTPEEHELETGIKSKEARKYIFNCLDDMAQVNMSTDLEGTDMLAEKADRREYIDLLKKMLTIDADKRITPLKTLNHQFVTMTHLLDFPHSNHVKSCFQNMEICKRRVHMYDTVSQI
JAK2(h), sequence (O60674 808-1132 limits assumed): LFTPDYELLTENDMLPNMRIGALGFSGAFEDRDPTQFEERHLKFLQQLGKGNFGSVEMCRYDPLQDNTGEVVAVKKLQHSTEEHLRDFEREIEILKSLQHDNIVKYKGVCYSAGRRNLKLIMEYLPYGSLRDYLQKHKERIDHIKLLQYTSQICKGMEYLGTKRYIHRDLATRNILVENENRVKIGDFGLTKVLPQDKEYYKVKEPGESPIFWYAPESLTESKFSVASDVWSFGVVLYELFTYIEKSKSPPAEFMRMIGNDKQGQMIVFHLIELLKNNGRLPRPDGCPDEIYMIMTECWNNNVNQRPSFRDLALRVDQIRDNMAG
STK33(h), sequence (Q9BYT3 whole entry): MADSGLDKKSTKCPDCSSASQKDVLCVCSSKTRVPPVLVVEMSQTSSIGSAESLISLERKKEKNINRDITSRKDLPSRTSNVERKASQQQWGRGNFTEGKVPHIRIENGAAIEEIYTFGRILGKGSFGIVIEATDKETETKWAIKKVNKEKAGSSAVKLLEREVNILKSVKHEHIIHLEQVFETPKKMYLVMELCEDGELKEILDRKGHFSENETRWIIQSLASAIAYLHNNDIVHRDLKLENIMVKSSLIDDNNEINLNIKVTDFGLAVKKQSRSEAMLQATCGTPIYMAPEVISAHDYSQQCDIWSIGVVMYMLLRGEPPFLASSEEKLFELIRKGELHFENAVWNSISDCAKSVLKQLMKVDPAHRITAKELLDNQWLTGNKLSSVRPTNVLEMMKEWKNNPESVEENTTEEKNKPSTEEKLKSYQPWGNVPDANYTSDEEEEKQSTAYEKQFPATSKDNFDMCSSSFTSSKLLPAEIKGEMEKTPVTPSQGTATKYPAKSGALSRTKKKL

| % activity (Pim-3(h)) [%] | % activity (PKD2(h)) [%] | % activity (MST1(h)) [%] | % activity (JAK2(h)) [%] | % activity (STK33(h)) [%] | % activity (Fms(Y969C)(h)) [%] | % activity (cSRC(h)) [%] | % activity (Ros(h)) [%] | % activity (FGFR1(h)) [%] | % activity (DYRK2(h)) [%] | % activity (HIPK1(h)) [%] | Binder |
| --- | --- | --- | --- | --- | --- | --- | --- | --- | --- | --- | --- |
| 80 | 25 | 6 | 119 | 52 | 91 | 14 | 99 | 59 | 195 | 91 | KAFAKLAARLYRKALARQLGVAA [MMI-0400] |
| 80 | 33 | 14 | 133 | 45 | 72 | 26 | 95 | 55 | 155 | 74 | FAKLAARLYRKALARQLGVAA [MMI-0300] |
